Assay results: patent US20220017612A1 (TILOS THERAPEUTICS, published 2022)

Tests used:
Assay in all cases: BLI, 2:1 model, component 2
[1] = target: T1, fusion protein of a human IgG1 Fc domain and rat LAP-TGFβ1 (human; rat, UniProt P17246 30-390, limits assumed)
T1 construct: also called rat LAP-TGFβ-Fc
Experimental: (§1) The 20E6_H0.2aL1_IgG1 antibody was biotinylated using EZ-Link SulfoNHS-LC-Biotin (ThermoFisher). A streptavidin-functionalized tip was equilibrated in binding buffer (10 mM sodium phosphate, 150 mM sodium chloride, 1% (w/v) bovine serum albumin, 0.05% (w/v) sodium azide, pH 7.4) and dipped in a 10 μg/mL solution of biotinylated anti-LAP in binding buffer for 30 seconds to load the tip with antibody. The antibody-loaded tip was then washed in binding buffer and placed in a solution containing 0-24 nM of a fusion protein having a human IgG1 Fc domain fused to either human LAP-TGFβ1, human LAP-TGFβ2 or human LAP-TGFβ3. The antigen was allowed to bind to antibody for 5 minutes (association phase), and then the tip was moved to binding buffer (dissociation phase). The association and dissociation phases were fit to a 2:1 heterogenous ligand binding model to determine the binding rate constants. As shown in FIG. 21A and Table 17, 20E6_H0.2aL1_IgG1 bound with sub-nanomolar affinity to human LAP-TGFβ1, but not to human LAP-TGFβ2 (FIG. 21B) or LAP-TGFβ3 (FIG. 21C).
(§2) The binding of 20E6_H0.2aL1_IgG1 antibody and 20E6_H0.2aL1_hIgG4mut antibody to LAP-TGFβ1 of various species was examined by bio-layer interferometry using the method described in Example 12, except that the antibody-loaded tip was placed in a solution containing 0-24 nM of a fusion protein having a human IgG1 Fc domain fused to either mouse, rat, cynomolgus monkey, or human LAP-TGFβ1.

[2] = target: T2, fusion protein of a human IgG1 Fc domain and cynomolgus monkey LAP-TGFβ1 (human; cynomolgus monkey)
T2 construct: also called cynomolgus monkey LAP-TGFβ-Fc
Experimental: as §1, §2

[3] = target: T3, fusion protein of a human IgG1 Fc domain and mouse LAP-TGFβ1 (human; mouse, UniProt P04202 30-390)
T3 construct: also called mouse LAP-TGFβ-Fc
T3 sequence (P04202 30-390 limits assumed): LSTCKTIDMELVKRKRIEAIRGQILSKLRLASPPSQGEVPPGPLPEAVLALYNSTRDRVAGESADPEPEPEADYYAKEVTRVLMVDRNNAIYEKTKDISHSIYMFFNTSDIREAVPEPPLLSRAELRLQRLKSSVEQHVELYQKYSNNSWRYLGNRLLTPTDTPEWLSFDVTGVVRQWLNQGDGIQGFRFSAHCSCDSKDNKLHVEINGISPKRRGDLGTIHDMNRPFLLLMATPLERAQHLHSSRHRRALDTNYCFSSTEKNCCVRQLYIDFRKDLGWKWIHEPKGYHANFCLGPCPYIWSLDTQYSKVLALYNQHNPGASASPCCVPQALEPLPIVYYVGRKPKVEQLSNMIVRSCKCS
Experimental: as §1, §2

[4] = target: T4, fusion protein of a human IgG1 Fc domain and human LAP-TGFβ1 (human, UniProt P01137 30-390)
T4 construct: printed both as Fc-huB1 and LAP-TGFβ-Fc; also called Fc-huB1; Fc-human LAP
T4 sequence (P01137 30-390 limits assumed): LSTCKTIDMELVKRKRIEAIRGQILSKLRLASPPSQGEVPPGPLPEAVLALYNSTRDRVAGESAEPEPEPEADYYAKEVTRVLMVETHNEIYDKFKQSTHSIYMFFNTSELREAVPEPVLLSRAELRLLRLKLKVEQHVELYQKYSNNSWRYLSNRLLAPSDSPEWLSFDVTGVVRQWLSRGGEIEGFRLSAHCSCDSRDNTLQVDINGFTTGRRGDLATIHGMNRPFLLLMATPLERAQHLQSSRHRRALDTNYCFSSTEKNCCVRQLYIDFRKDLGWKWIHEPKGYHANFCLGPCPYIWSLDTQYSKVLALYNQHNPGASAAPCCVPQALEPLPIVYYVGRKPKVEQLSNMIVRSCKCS
Experimental: as §1, §2

T1 sequence (P17246 30-390 limits assumed): as the sequence (P04202 30-390 limits assumed) above, with E93D, S99T, L131F, S134T, K202V counted along it

- Kd [1]: 0.68 nM
- koff [1]: 0.000768 s⁻¹
- kon [1]: 1.14e+06 M⁻¹ s⁻¹
- Kd [2]: 0.71 nM
- koff [2]: 0.000728 s⁻¹
- kon [2]: 1.03e+06 M⁻¹ s⁻¹
- Kd [3]: 0.56 nM
- koff [3]: 0.00039 s⁻¹
- kon [3]: 700000 M⁻¹ s⁻¹
- Kd [4]: 0.97 nM
- koff [4]: 0.000657 s⁻¹
- kon [4]: 680000 M⁻¹ s⁻¹
B1: 20E6_H0.2aL1_hIgG1 (antibody)
heavy: not shown
light: DIQMTQSPSSLSASVGDRVTITCRASQDITNYLNWYQQKPGKAVKLLIYYTSRLHSGVPSRFSGSGSGTDYTLTISSLQPEDFATYFCQQGDTLPWTFGQGTKLEIKRTVAAPSVFIFPPSDEQLKSGTASVVCLLNNFYPREAKVQWKVDNALQSGNSQESVTEQDSKDSTYSLSSTLTLSKADYEKHKVYACEVTHQGLSSPVTKSFNRGEC
notes: also called 20E6_H0.2aL1_IgG1; humanized 20E6
